Assay results reported in US20110082078.

System: ZFP-TF 14172-p65 (rat GDNF activator) (synthetic)
Assay: cell_activity
Settings: GDNF mRNA increase vs AAV-GFP in rat eye; also activates in rat striatal neurons (FIG. 5)

GGGGGCGCGGAACCGGGA (double strand) [rat GDNF target site (SEQ ID NO:55)]
activity: 5 fold
